Earlier results on two substances are cited in article PMC5319824.

Values joined by “and” are separate entries in the source; they are usually repeats but may differ in a detail not shown here. Equal values may be shown once. Read-outs that look alike come from different tables or passages of the source.

Data set [1] deals with FtsZ (Escherichia coli) (UniProt P0A9A6).
The target is the same in data set [2]. The source holds these as a separate data set.
Data set [3] has the same target. This is another data set of the same source.

Chain of FtsZ (Escherichia coli) (P0A9A6 whole entry): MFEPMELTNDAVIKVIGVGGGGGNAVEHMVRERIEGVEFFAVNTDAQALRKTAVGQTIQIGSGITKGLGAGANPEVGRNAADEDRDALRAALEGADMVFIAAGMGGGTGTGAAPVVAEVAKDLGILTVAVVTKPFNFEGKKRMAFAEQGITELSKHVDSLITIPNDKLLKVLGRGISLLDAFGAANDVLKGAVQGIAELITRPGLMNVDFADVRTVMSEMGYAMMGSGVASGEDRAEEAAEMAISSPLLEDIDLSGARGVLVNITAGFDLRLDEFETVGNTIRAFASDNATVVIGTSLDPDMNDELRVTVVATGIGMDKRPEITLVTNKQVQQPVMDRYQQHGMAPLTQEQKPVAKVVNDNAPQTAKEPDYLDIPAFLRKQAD
Chain of FtsA (P0ABH0 whole entry): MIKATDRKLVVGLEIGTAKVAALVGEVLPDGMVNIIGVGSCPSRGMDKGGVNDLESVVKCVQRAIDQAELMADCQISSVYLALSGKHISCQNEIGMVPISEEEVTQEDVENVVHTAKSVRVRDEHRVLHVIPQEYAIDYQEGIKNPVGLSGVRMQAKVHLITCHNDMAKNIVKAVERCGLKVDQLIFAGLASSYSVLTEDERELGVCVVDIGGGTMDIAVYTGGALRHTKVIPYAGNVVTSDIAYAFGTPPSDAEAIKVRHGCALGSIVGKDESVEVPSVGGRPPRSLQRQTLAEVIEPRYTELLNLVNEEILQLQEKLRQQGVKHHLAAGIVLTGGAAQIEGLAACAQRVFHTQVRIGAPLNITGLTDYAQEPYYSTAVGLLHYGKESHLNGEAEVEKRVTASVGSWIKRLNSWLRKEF

For the substance ZipA (from UniProt P77173), the Kd in data set [1] was 30 µM and 140 µM; in data set [2] it was 0.4 µM.

As for FtsA (from UniProt P0ABH0), in data set [3], the Kd was > 40 µM.
